One molecule from paper doi:10.1101/699223 (bioRxiv, 2019) can be followed below.

Assay [1] deals with T1, human BBS2 L349W, c-Myc-tagged (human, UniProt Q9BXC9 1-721, L349W).
T1 sequence (looked up): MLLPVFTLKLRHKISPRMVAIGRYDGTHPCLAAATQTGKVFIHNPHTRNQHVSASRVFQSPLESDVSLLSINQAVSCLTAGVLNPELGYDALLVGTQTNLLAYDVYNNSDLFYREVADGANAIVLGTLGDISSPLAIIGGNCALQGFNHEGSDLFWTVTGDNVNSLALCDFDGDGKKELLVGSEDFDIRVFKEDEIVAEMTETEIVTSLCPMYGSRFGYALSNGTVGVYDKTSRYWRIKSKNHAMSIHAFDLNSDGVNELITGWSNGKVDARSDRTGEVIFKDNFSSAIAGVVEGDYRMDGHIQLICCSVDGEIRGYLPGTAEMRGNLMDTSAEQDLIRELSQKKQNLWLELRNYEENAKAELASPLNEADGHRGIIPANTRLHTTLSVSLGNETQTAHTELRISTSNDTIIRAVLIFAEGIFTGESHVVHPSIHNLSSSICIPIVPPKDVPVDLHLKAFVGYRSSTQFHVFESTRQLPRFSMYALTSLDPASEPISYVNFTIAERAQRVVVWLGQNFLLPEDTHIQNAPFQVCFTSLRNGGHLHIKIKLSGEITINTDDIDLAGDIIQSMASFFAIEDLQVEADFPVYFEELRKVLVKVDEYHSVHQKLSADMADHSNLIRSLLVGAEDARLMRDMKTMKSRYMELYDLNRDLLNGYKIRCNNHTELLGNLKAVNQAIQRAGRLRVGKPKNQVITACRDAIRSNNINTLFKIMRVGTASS
Description: co-IP.

The target in assay [2] is T2, human BBS2 (Bardet-Biedl syndrome protein 2), wild type, HPC4- and c-Myc-tagged (human, UniProt Q9BXC9 1-721).
T2 sequence (looked up): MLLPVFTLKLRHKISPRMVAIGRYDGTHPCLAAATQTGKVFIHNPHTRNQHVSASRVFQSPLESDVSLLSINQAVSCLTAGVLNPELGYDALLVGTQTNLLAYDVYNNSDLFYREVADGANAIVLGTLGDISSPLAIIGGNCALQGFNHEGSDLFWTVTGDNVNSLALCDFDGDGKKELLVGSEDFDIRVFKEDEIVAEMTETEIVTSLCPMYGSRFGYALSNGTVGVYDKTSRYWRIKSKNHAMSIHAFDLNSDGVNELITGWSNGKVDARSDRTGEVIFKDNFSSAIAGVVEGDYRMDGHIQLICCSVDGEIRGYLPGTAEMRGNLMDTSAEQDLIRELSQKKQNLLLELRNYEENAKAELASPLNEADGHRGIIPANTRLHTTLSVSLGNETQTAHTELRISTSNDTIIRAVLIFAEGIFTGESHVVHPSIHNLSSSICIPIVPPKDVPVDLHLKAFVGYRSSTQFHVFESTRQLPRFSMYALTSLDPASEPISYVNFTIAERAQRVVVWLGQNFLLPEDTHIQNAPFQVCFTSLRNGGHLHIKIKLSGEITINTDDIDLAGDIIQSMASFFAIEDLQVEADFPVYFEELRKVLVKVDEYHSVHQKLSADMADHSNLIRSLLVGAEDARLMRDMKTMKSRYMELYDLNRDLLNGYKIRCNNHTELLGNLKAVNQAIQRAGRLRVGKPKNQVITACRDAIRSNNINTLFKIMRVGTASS
Description: pull-down.

B1: human BBS7 (Bardet-Biedl syndrome protein 7), wild type, Flag-Strep-tagged (natural protein, UniProt Q8IWZ6 1-715, looked up)
chain: MDLILNRMDYLQVGVTSQKTMKLIPASRHRATQKVVIGDHDGVVMCFGMKKGEAAAVFKTLPGPKIARLELGGVINTPQEKIFIAAASEIRGFTKRGKQFLSFETNLTESIKAMHISGSDLFLSASYIYNHYCDCKDQHYYLSGDKINDVICLPVERLSRITPVLACQDRVLRVLQGSDVMYAVEVPGPPTVLALHNGNGGDSGEDLLFGTSDGKLALIQITTSKPVRKWEIQNEKKRGGILCIDSFDIVGDGVKDLLVGRDDGMVEVYSFDNANEPVLRFDQMLSESVTSIQGGCVGKDSYDEIVVSTYSGWVTGLTTEPIHKESGPGEELKINQEMQNKISSLRNELEHLQYKVLQERENYQQSSQSSKAKSAVPSFGINDKFTLNKDDASYSLILEVQTAIDNVLIQSDVPIDLLDVDKNSAVVSFSSCDSESNDNFLLATYRCQADTTRLELKIRSIEGQYGTLQAYVTPRIQPKTCQVRQYHIKPLSLHQRTHFIDHDRPMNTLTLTGQFSFAEVHSWVVFCLPEVPEKPPAGECVTFYFQNTFLDTQLESTYRKGEGVFKSDNISTISILKDVLSKEATKRKINLNISYEINEVSVKHTLKLIHPKLEYQLLLAKKVQLIDALKELQIHEGNTNFLIPEYHCILEEADHLQEEYKKQPAHLERLYGMITDLFIDKFKFKGTNVKTKVPLLLEILDSYDQNALISFFDAA
For the molecule B1, the “decrease in binding relative to WT” value in assay [1] was found to be 30%. Moreover, the binding result in assay [2] is listed as “binds”.
